Experimental data published in paper doi:10.1101/2022.09.08.507146, “Cytomotive actins and tubulins share a polymerisation switch mechanism conferring robust dynamics” (bioRxiv, 2022).

Target: the molecule itself
Assay: cryo-EM structure; BtubA*B single protofilaments, 0.21 mg/mL in HMK100 pH 7.7 with 0.5 mM GMPCPP, 45 s at 20 °C

B1: Prosthecobacter dejongeii BtubA*B heterodimer (BtubA* R284G, R286D, F287G with BtubB) (complex)
chain 1: MKVNNTIVVSIGQAGNQIAASFWKTVCLEHGIDPLTGQTAPGVAPRGNWSSFFSKLGESSSGSYVPRAIMVDLEPSVIDNVKATSGSLFNPANLISRTEGAGGNFAVGYLGAGREVLPEVMSRLDYEIDKCDNVGGIIVLHAIGGGTGSGFGALLIESLKEKYGEIPVLSCAVLPSPQVSSVVTEPYNTVFALNTLRRSADACLIFDNEALFDLAHRKWNIESPTVDDLNLLITEALAGITASMRFSGFLTVEISLRELLTNLVPQPSLHFLMCAFAPLTPPDGSDGEELGIEEMIKSLFDNGSVFAACSPMEGRFLSTAVLYRGIMEDKPLADAALAAMREKLPLTYWIPTAFKIGYVEQPGISHRKSMVLLANNTEIARVLDRICHNFDKLWQRKAFANWYLNEGMSEEQINVLRASAQELVQSYQVAEESGAKAKVQDSAGDTGMRAAAAGVSDDARGSMSLRDLVDRRR
chain 2: MREILSIHVGQCGNQIADSFWRLALREHGLTEAGTLKEGSNAAANSNMEVFFHKVRDGKYVPRAVLVDLEPGVIARIEGGDMSQLFDESSIVRKIPGAANNWARGYNVEGEKVIDQIMNVIDSAVEKTKGLQGFLMTHSIGGGSGSGLGSLILERLRQAYPKKRIFTFSVVPSPLISDSAVEPYNAILTLQRILDNADGAVLLDNEALFRIAKAKLNRSPNYMDLNNIIALIVSSVTASLRFPGKLNTDLSEFVTNLVPFPGNHFLTASFAPMRGAGQEGQVRTNFPDLARETFAQDNFTAAIDWQQGVYLAASALFRGDVKAKDVDENMATIRKSLNYASYMPASGGLKLGYAETAPEGFASSGLALVNHTGIAAVFERLIAQFDIMFDNHAYTHWYENAGVSRDMMAKARNQIATLAQSYRDAS
notes: BtubA*, as m5; BtubB, as m6; The heterodimer as the unit that polymerises into single protofilaments; also called BtubA*B M-loop mutant; mutant BtubAB; source: E. coli C41(DE3), co-expressed and co-purified (HiTrap Q XL, Sephacryl S300, Mono Q)
binding result: binds
